Patent US20250230251A1 (Bristol-Myers Squibb, published 2025)

Target: T1, cynomolgus monkey IL-18Rβ on cells (cynomolgus monkey, UniProt A0A7N9D6S0 20-598)
T1 sequence: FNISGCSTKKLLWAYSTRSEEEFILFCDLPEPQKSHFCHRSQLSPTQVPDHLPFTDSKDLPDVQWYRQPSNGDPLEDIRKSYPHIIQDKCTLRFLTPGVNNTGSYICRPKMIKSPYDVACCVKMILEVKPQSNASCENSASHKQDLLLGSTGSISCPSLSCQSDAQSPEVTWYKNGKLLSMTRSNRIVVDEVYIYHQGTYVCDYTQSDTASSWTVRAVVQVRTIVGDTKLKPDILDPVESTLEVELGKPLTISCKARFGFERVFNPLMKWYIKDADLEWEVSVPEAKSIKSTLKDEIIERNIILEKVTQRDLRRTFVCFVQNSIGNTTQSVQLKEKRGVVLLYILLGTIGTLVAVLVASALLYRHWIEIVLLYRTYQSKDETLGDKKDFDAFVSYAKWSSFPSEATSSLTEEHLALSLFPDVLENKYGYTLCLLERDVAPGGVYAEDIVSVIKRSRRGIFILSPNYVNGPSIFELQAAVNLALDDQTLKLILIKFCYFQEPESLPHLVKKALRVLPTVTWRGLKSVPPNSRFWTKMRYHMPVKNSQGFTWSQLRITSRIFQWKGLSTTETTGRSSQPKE
Assay: cell-based or functional assay

B1: P20-V1 (antibody, human IgG1, kappa, V domains shown)
VH: QVQLQESGPGLVKPSETLSLTCTVSGGSINNYYWSWIRQPPGKGLEWIGYIFYSGTTNYNPSLKSRVTISVDTSKNQFSLKLSSVTAADTAVYYCARDVGIAARNSYYYVMDVWGQGTTVTVSS
VL: AIQLTQSPSSLSASVGDRVTITCRASQGISSALAWYQQKPGKAPKFLIYEASSLESGVPSRFSGSGSGTDFTLTISSLQPEDFATYYCQQFNSYPITFGQGTRLEIKR
notes: Variant of P20
- IC50, IFNg, cyno whole blood IL-18+IL-12, Average: 4.3 nM
- IC50, IFNg, cyno whole blood IL-18+IL-12, donor B7619 (f): 5.1 nM
- IC50, IFNg, cyno whole blood IL-18+IL-12, donor B8476 (m): 3.3 nM
- IC50, IFNg, cyno whole blood IL-18+IL-12, donor B9301 (f): 4.7 nM
- IC50, IFNg, cyno whole blood IL-18+IL-12, donor B9313 (m): 2.4 nM
- IC50, IFNg, cyno whole blood IL-18+IL-12, donor B9447 (m): 5.1 nM
- IC50, IFNg, cyno whole blood IL-18+IL-12, donor B9496 (m): 1.9 nM
- IC50, IFNg, cyno whole blood IL-18+IL-12, donor B21333 (f): 1.8 nM
- IC50, IFNg, cyno whole blood IL-18+IL-12, donor B21374 (f): 2.5 nM
- IC50, IFNg, cyno whole blood IL-18+IL-12, donor B21394 (f): 6 nM
- IC50, IFNg, cyno whole blood IL-18+IL-12, donor B21411 (f): 5.1 nM
- IC50, IFNg, cyno whole blood IL-18+IL-12, donor B21435 (f): 10.5 nM
- IC50, IFNg, cyno whole blood IL-18+IL-12, donor B21438 (f): 2.2 nM
- IC50, IFNg, cyno whole blood IL-18+IL-12, donor B22017 (f): 5.7 nM
- IC50, IFNg, cyno whole blood IL-18+IL-12, donor B22187 (m): 3.9 nM
